Residue numbers refer to the chain shown, from its start.
T1: MatP4E (Escherichia coli, UniProt P0A8N0 1-132, K71E;Q72E;R75E;R77E)
T1 sequence: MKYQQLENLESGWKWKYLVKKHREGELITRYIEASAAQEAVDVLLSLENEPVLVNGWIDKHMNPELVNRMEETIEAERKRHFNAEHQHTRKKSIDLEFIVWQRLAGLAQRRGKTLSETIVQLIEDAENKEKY

T2: MatP (MatPΔ18C) (Escherichia coli, UniProt P0A8N0 1-132)
T2 sequence: T1 sequence with E71K, E72Q, E75R, E77R

B1: 50 bp nonspecific DNA (dsDNA)
DNA 1: CAGAGTTAATCACAACGGTTCTCGATCATCAAAGAAAAACAAGCTGTGCG
DNA 2: CGCACAGCTTGTTTTTCTTTGATGATCGAGAACCGTTGTGATTAACTCTG
B2: 50 bp matS DNA (dsDNA)
DNA 1: CAGAGTTAATCAGAACGGTGACAATGTCACAAAGAAAAAGAACCTGTGCG
DNA 2: CGCACAGGTTCTTTTTCTTTGTGACATTGTCACCGTTCTGATTAACTCTG

Columns and labels:
MatP4E = biological target: T1, MatP4E; test: EMSA (native PAGE); 1 mM Mg2+; Native PAGE: 50 mM HEPES pH 7.5, 100 mM NaCl, 1 mM MgCl2, 1 mM DTT, 10% glycerol, on ice 30 min; FCS: 20 mM Tris-HCl pH 7.5, 50 mM NaCl, 0.3 mg/mL BSA, 2 mM DTT, 0.05% Tween-20, 22 °C; nMS buffer not given in the material; conditions: protein: recombinant; tags: C-terminal 6xHis; chain copies: 2; blunt
MatP (MatPΔ18C) = biological target: T2, MatP (MatPΔ18C); test: native MS; Native PAGE: 50 mM HEPES pH 7.5, 100 mM NaCl, 1 mM MgCl2, 1 mM DTT, 10% glycerol, on ice 30 min; FCS: 20 mM Tris-HCl pH 7.5, 50 mM NaCl, 0.3 mg/mL BSA, 2 mM DTT, 0.05% Tween-20, 22 °C; nMS buffer not given in the material; conditions: protein: recombinant; tags: C-terminal 6xHis; chain copies: 2; blunt

Binder | binding result (MatP4E) | binding result (MatP (MatPΔ18C))
B1 | no binding | –
B2 | no binding | binds

Reference: paper PMC8523169, “Competitive binding of MatP and topoisomerase IV to the MukB hinge domain”
